Results taken from patent US20110263830A1.

Biological target: c-Met receptor (human) (UniProt P08581)
Assay: cell-based or functional assay

UniProt P08581, sequence (P08581 25-1390): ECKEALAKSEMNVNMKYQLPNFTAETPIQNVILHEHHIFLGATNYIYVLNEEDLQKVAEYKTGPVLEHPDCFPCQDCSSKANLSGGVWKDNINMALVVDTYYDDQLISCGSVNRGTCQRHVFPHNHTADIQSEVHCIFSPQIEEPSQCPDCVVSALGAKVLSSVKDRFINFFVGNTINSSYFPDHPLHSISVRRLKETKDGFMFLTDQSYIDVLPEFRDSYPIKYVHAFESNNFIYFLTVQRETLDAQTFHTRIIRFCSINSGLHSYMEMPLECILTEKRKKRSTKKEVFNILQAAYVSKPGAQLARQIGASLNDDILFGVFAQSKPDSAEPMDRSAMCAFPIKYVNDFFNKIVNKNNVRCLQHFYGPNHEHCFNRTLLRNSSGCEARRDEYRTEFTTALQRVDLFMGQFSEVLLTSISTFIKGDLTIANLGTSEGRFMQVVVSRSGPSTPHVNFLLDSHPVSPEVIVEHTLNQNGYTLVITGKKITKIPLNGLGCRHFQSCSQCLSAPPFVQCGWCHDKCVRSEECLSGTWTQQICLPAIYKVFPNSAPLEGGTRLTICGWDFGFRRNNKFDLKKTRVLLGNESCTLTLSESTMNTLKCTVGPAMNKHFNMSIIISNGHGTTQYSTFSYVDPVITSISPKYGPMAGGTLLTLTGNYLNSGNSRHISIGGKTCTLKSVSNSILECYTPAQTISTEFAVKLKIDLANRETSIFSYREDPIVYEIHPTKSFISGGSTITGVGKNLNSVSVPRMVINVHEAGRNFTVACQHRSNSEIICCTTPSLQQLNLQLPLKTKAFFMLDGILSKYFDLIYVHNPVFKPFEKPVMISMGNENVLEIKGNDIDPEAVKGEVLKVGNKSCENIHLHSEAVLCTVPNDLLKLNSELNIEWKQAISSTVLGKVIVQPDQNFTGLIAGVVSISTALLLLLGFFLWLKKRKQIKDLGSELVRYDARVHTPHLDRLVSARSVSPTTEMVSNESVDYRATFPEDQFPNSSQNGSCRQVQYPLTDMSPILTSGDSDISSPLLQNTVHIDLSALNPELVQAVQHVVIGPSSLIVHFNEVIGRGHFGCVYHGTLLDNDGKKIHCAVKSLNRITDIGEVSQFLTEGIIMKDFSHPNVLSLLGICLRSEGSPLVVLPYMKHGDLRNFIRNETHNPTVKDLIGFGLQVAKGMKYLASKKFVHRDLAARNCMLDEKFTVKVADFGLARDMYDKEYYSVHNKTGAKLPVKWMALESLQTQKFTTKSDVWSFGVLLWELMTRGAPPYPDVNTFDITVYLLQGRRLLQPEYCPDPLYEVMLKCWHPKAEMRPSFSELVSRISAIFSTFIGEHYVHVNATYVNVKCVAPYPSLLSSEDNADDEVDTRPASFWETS

agonist effect on c-Met receptor phosphorylation, A549 cells (phospho-c-Met ELISA) (% of HGF effect)	inhibition of HGF [100 ng/ml]-induced c-Met receptor phosphorylation, A549 cells (% inhibition of HGF effect)	inhibition of HGF-induced proliferation of NCI-H441 cells ([3H]Thymidine)	Binder
< 5	> 70	80 % inhibition	murine 11E1 Mab (antibody, from another filing, mouse IgG1, V domains shown) VH: QVQLQQSGAELAKPGASVKMSCKASGYTFTSYWMNWVKQRPGQGLEWIGYINPTTGSTDYNQKLKDKATLTADKSSNTAYMQLSSLTSEDSAVYYCAIGGYGSWFAYWGQGTLVTVSA VL: QIVLTQSPAIMSASPGEKVTLTCSASSSVSSTYLYWYQQKPGSSPKLWIYTTSILASGVPARFSGSGSGTSYSLTISSMETEDAASYFCHQWSSYPFTFGSGTKLDIK
< 5	> 70	80 % inhibition	murine 227H1 Mab (antibody, from another filing, mouse IgG1, V domains shown) VH: EVQLQQSGPELVKPGASMKISCKASGYSFTDYTLNWVKQSHGKTLEWIGLINPYNGGTTYNQKFKGKATLTVDKSSSTAYMELLSLTSEDSAVYYCAREEITKDFDFWGQGTTLTVSS VL: GIVLTQSPASLAVSLGQRATISCRVSESIDTYGNSFIHWYQQKPGQPPKLLIYRASNLESGIPARFSGSGSRTDFTLTINPVEADDSATYYCQQSNEDPFTFGSGTKLEMK
